Consider one substance from US12404328.

For the experiment, the target named is CD19 expressed on the surface of KILR Raji cells (UniProt P15391). Nature of the experiment: cell-based or functional assay.
Sequence of CD19 expressed on the surface of KILR Raji cells (P15391 20-556 limits assumed): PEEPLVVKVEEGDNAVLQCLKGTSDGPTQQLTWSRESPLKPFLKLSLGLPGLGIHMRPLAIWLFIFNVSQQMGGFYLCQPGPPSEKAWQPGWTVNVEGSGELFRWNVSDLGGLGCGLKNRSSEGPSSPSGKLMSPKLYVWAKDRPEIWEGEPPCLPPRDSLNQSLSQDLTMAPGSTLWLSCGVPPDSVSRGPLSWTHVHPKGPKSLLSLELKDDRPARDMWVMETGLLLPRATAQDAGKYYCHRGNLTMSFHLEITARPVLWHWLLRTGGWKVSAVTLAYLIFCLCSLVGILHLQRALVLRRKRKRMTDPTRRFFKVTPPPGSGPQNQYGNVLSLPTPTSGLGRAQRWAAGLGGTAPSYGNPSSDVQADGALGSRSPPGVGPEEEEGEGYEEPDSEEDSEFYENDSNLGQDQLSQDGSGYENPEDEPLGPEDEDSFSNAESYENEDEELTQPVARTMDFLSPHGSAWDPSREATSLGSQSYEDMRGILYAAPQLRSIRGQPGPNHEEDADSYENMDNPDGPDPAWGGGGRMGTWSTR

As to blinatumomab (bispecific antibody), the EC50 of T cell-redirected killing of KILR Raji cells, +HSA (15 mg/mL) worked out at 10.8 ng/mL; the EC50 of T cell-redirected killing of KILR Raji cells, -HSA amounted to 2.85 ng/mL; the Fold change (EC50 +HSA / EC50 -HSA) of killing of KILR Raji cells was found to be 3.8 fold.
